Results reported in patent publication US20080201790A1, “Method and product for regulating cell responsiveness to external signals” (priority 1993, published 2008).

Columns and labels:
Assay type in all cases: cell-based
Gal4/Elk-1 = assay: Gal4-TK-luciferase transactivation analysis, Gal4/Elk-1; conditions: expression in Swiss 3T3 cells
Excerpt: (§1) Swiss 3T3 cells were transfected using calcium phosphate or lipofectamine with the reporter plasmid Gal4-TK-luciferase, which contains four Gal4 binding sites (Sadowski, I., et al. (1988). Nature 335, 563-564). adjacent to a minimal thymidine kinase (TK) promoter that controls expression of luciferase, in the presence or absence of activator plasmids encoding Gal4(1-147)/Myc(7-101) (Gupta et al. (1993) Proc. Natl. Acad. Sci. USA 90:3216-3220), Gal4(1-47)/Elk-1(83-428) (Marais, et al. (1993) Cell 73:381-393) or Gal4(1-147)/c-Jun(1-233) Hibi et al. (1993) Genes & Development 7:2135-2148). Transfections included pCMV5 without a cDNA insert (basal control), pCMV5MEKKCOOH and in some experiments pCMV5BxBRaf. Cells were incubated for 24-48 hr after transfection, lysed and assayed for luciferase activity. Values were normalized to equivalent μg protein for all experiments.

Gal4/Jun = assay: Gal4-TK-luciferase transactivation analysis, Gal4/Jun; conditions: IPTG-induced stable expression in Swiss 3T3 cells
Excerpt: as §1

ERK = ERK activity in Swiss 3T3 clones with inducible MEKKCOOH; conditions: 17 hours IPTG induction
REF52 cells = assay: Cell morphology after microinjection of expression plasmids; conditions: microinjected REF52 cells
Description: Swiss 3T3 and REF52 cells were plated on acid-washed glass cover slips in Dulbecco's Modified Eagle's Medium (DMEM) and 10% bovine calf serum (BCS) or newborn calf serum (NCS). Cells were placed in DMEM/0.1% calf serum for overnight incubation prior to microinjection and used for injection at 50-70% confluence. Injections were performed with an Eppendorf automated microinjection system with needles pulled from glass capillaries on a vertical pipette puller (Kopf, Tujunga, Calif.). Cells were injected with pCMVβ-gal in the presence or absence of pCMV5MEKKCOOH or pCMV5BxBRaf at 20-100 ng/μl for each expression plasmid in 100 mM KC1, 5 mM NaPO4, pH 7.3. Following injection cells were placed in 1% NCS for 12-18 hr (Swiss 3T3) or 42 hr (REF52) prior to fixation with paraformaldehyde and staining. Similar results were obtained when cells were placed in 10% NCS after microinjection. Propidium iodide ([…]) was used to stain DNA. X-Gal reactions were performed for six hr.

Swiss 3T3 cells = assay: UV-induced apoptosis in Swiss 3T3 clones with IPTG-inducible MEKKCOOH; conditions: two hours after ultraviolet irradiation
Description: FIG. 16. Induction of MEKKCOOH expression by IPTG in Swiss 3T3 cells increases the number of condensed cells and stimulates c-Myc transactivation. In panel A, cells were incubated in the presence or absence of 5 mM IPTG for forty eight hours. Cells were stained with acrodine orange and condensed cells quantitated per 1000 cells counted per coverslip. In panel B Swiss 3T3 cells with inducible MEKKCOOH were incubated in the presence or absence of IPTG. The indicated cells were then exposed to UV-C irradiation and then fixed and stained with propidium iodide. The percentage of apoptotic cells was enumerated.
Because stable expression of MEKKCOOH appeared to inhibit clonal expansion of Swiss 3T3 cells under G418 drug selection, clones were isolated having inducible expression of the kinase. The Lac Switch expression system (Stratagene) was used to control the expression of MEKKCOOH. Several independent clones were isolated and their properties analyzed in the presence or absence of IPTG-induced expression of MEKKCOOH. The parental LacR+ clone expressing only the Lac repressor was used as the control. […] This is probably due to a basal level of MEKKCOOH expression in uninduced cells. […] This maybe related to selection of cells during the cloning procedure that adapted to a low, constitutive level of MEKKCOOH expression. […]

Gal4/Myc = assay: Gal4-TK-luciferase transactivation analysis, Gal4/Myc; conditions: IPTG-induced stable expression in Swiss 3T3 cells
Excerpt: as §1

transactivation function of Elk-1 (Gal4/Elk-1): markedly activated | Gal4/Jun activity (Gal4/Jun): little effect on Gal4/Jun activity | transactivation function of c-Myc (Gal4/Myc): markedly activated
B1: MEKKCOOH: a truncated activated form of MEKK1 including the entire kinase domain (protein)
chain: MAMSASQDALPIVPQLQVENGEDIIIIQQDTPETLPGHTKAKQPYREDAEWLKGQQIGLGAFSSCYQAQDVGTGTLMAVKQVTYVRNTSSEQEEVVEALREEIRMMGHLNHPNIIRMLGATCEKSNYNLFIEWMAGGSVAHLLSKYGAFKESVVINYTEQLLRGLSYLHENQIIHRDVKGANLLIDSTGQRLRIADFGAAARLASKGTGAGEFQGQLLGTIAFMAPEVLRGQQYGRSCDVWSVGCAIIEMACAKPPWNAEKHSNHLALIFKIASATTAPSIPSHLSPGLRDVAVRCLELQPQDRPPSRELLKHPVFRTTW
ERK activity (ERK): did not activate either ERK or p38/Hog1 activity | cytoplasmic and nuclear morphology (REF52 cells): dramatic cytoplasmic shrinkage and nuclear condensation | cells morphologically highly condensed, appearing apoptotic (Swiss 3T3 cells): greater than 30%
